Laboratory results published in EP4635980A1 (Medigene Immunotherapies GmbH, dated 2025).

Columns and labels:
[1] = target: T1, ALA-10 mutagenic UNI-tag peptide (DKGEVPKDRASA); assay: dot blot, peptide on PVDF membrane
T1 construct: UNI-tag with alanine at position 10 (F10A); also called Uni-Tag-ALA 10; positive control
T1 peptide: DKGEVPKDRASA

[2] = target: T2, ALA-5 mutagenic UNI-tag peptide (DKGEAPKDRFSA); assay: dot blot, peptide on PVDF membrane
T2 construct: UNI-tag with alanine at position 5 (V5A); also called Uni-TAG-ALA 5; negative control
T2 peptide: DKGEAPKDRFSA

B1: MDG827 monoclonal antibody (MDG827 hybridoma supernatant) (antibody, V domains shown)
VH: EVQLEESGGGLVQPGRSMKLSCAASGFTFSDYGMAWVLQGPTKGLEWVASISYDGNRPYYRDSVKGRFTISRDNAKSTLYLQMESLRSEDTATYYCVKDLFEIGDFDYWGQGVMVTVSS
VL: DVLMTQTPVSLPVSLGGQVSISCRSSQSLVHSDGNTYLHWYLQKPGQSPQLLIYRVSNRFSGVPDRFTGSGSGTDFTLKISRVEPEDLGVYYCLQSTHFPLTFGSGTKLEIKR
notes: detected with anti-IgG2a secondary antibody; Used as hybridoma supernatant; also called MDG827 antibody; MDG827 Ab
- binding result [1]: binds
- binding result [2]: no binding

B2: recombinant monoclonal MDG827 antibody (produced in HEK293 cells) (antibody, V domains shown)
VH: B1 VH
VL: B1 VL
notes: used as culture supernatant; Detected with anti-rat IgG2a; also called recombinantly produced MDG827; anti-TRBC MDG827 antibody
- binding result [2]: no binding
